From PMC12824264

Target: BMP9 growth factor domain (GFD) dimer (human) (UniProt Q9UK05)
Assay: ELISA; displacement assay: anti-human CD105 antibody coated; sENG(M):BMP9 or sENG(D):BMP9 captured 2 h at room temperature; BMPRII or ActRIIB ECD at 0x, 1x, 5x, 25x, 125x molar excess for 30 min; BMP9 left in the complex detected with biotinylated anti-BMP9

Chain of BMP9 growth factor domain (GFD) dimer (human) (Q9UK05 320-429): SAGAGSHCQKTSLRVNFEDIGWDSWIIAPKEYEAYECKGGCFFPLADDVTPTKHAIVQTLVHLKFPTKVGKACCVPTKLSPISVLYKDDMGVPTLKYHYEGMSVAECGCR

A percent displacement of sENG from the sENG(D):BMP9 complex at 125-fold molar excess of over 50% was found for “BMP receptor type II (BMPRII) extracellular domain (from UniProt Q13873 27-150) (domain or fragment)” in this work.
